Reference: patent publication US8936785 (ESBATECH AN ALCON BIOMEDICAL RESEARCH UNIT, dated 2015)
Substitutions are numbered along the chain they refer to.

Target: TNFα (tumour necrosis factor alpha) (UniProt P01375 77-233, limits assumed)
Experiment: cell-based or functional assay

Sequence of TNFα (tumour necrosis factor alpha) (P01375 77-233 limits assumed): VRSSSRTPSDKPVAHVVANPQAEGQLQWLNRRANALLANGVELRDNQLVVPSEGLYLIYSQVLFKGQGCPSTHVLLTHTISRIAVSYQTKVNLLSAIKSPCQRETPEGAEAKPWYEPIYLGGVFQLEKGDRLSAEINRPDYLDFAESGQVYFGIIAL

B1: TB-H_F68V_F70L (scFv)
scFv: DIVMTQSPSSLSASVGDRVTLTCTASQSVSNDVVWYQQRPGKAPKLLIYSAFNRYTGVPSRFSGRGYGTDFTLTISSLQPEDVAVYYCQQDYNSPRTFGQGTKLEVKRGGGGSGGGGSGGGGSSGGGSQVQLVQSGAEVKKPGASVKVSCTASGYTFTHYGMNWVRQAPGKGLEWMGWINTYTGEPTYADKFKDRVTLSLETSASTVYMELTSLTSDDTAVYYCARERGDAMDYWGQGTLVTVSS
  Relative potency: EC50X/EC50ESBA105, L929 cells: 1.28 ratio EC50X/EC50ESBA105

B2: TB-H_F70L (scFv)
scFv: B1 scFv with V196F
  Relative potency: EC50X/EC50ESBA105, L929 cells: 2.7 ratio EC50X/EC50ESBA105
